Test results published in US20170306368, “METHODS FOR THAXTOMIN PRODUCTION AND MODIFIED STREPTOMYCES WITH INCREASED THAXTOMIN PRODUCTION” (University of Florida Research Foundation, Inc., published 2017).

Tests used:
Conditions in all cases: tags: C-terminal His6 (pET-22b, E. coli); label: Cy5
[1] = molecular target: T1, CebR (SCAB57761) (Streptomyces scabies 87-22); assay: EMSA; strong binding with 20-fold excess nonspecific salmon sperm DNA; 0.08-3.2 uM CebR; pH 7.5, 0.25 mM CaCl2, 0.5 mM MgCl2, 50 mM KCl, room temperature; inhibited by cellobiose
T1 chain: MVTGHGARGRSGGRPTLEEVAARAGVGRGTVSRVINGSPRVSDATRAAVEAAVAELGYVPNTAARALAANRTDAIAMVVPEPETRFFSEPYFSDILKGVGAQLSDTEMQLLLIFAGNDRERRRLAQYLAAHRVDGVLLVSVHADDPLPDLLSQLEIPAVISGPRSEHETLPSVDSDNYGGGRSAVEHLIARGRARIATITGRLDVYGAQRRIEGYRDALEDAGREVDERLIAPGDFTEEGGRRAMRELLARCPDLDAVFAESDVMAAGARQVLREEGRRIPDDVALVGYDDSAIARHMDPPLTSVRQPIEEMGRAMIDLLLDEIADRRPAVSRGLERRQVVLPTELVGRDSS

[2] = molecular target: T1, CebR (SCAB57761); assay: EMSA; strong binding with 20-fold excess nonspecific salmon sperm DNA; same buffer; inhibited by cellobiose
[3] = molecular target: T1, CebR (SCAB57761); assay: EMSA; strong binding, positive control; excess nonspecific salmon sperm DNA; same buffer; inhibited by cellobiose

B1: cbs txtR-A probe (dsDNA)
DNA 1: TGTCAATAAGCGGGAGCGCTCCCACAGCGCTCTC
DNA 2: GAGAGCGCTGTGGGAGCGCTCCCGCTTATTGACA
- binding result [1]: binds

B2: cbs txtB probe (dsDNA)
DNA 1: CTCCCCCAGGGGGAGCGCTCCCACTGCGCTGTA
DNA 2: TACAGCGCAGTGGGAGCGCTCCCCCTGGGGGAG
- binding result [2]: binds

B3: cbs cebR-E probe (dsDNA)
DNA 1: CCAGGTACTGTGGGAGCGCTCCCACGAGTGATGT
DNA 2: ACATCACTCGTGGGAGCGCTCCCACAGTACCTGG
- binding result [3]: binds

B4: cbs bglC probe (dsDNA)
DNA 1: GGTTCAGGCATGGAAGCGCTCCCATTGGTGGTCG
DNA 2: CGACCACCAATGGGAGCGCTTCCATGCCTGAACC
- binding result [3]: binds
